Test results reported in US20150374794A1 (Novo Nordisk, published 2015).
Numbered stars: 1 amine (or outer) side, 2 acyl side, 3 side chain; on linkers, the order of the positions; unused ones are H or OH. Square brackets hold non-standard residues; d marks the D form. Side chains are listed from the residue outwards. Ends that are not written are not given here. * marks the point of attachment. C18 diacid = O=C(O)CCCCCCCCCCCCCCCCC(=O)*; γGlu = O=C(O)[C@H](CCC(=O)[*:2])N[*:1]; AEEA = NCCOCCOCC(=O)O; Aib = CC(C)(N)C(=O)O

B1: N^ε29-[(4S)-4-carboxy-4-[[2-[2-[2-[[2-[2-[2-[[(4S)-4-carboxy-4-[[(4S)-4-carboxy-4-(17-carboxyheptadecanoylamino)butanoyl]amino]butanoyl]amino]ethoxy]ethoxy]acet … (peptide)
peptide: H[Aib]QGTFTSDLSKYLESRRAREFVQWLLKT-NH2
modifications: not fully specified (residue 28)
B2: N^ε16-[(4S)-4-carboxy-4-[[(4S)-4-carboxy-4-[[2-[2-[2-[[2-[2-[2-[[(4S)-4-carboxy-4-(17-carboxyheptadecanoylamino)butanoyl]amino]ethoxy]ethoxy]acetyl]amino]ethoxy … (peptide)
peptide: H[Aib]QGTFTSDLSKYLDK([γGlu-γGlu-AEEA-AEEA-γGlu-C18 diacid])RRAREFVQWLLNT-NH2
modifications: N-terminus assumed
SMILES: CC(C)C[C@H](NC(=O)[C@H](Cc1ccc(O)cc1)NC(=O)[C@H](CCCCN)NC(=O)[C@H](CO)NC(=O)[C@H](CC(C)C)NC(=O)[C@H](CC(=O)O)NC(=O)[C@H](CO)NC(=O)[C@@H](NC(=O)[C@H](Cc1ccccc1)NC(=O)[C@@H](NC(=O)CNC(=O)[C@H](CCC(N)=O)NC(=O)C(C)(C)NC(=O)[C@@H](N)Cc1c[nH]cn1)[C@@H](C)O)[C@@H](C)O)C(=O)N[C@@H](CC(=O)O)C(=O)N[C@@H](CCCCNC(=O)CC[C@H](NC(=O)CC[C@H](NC(=O)COCCOCCNC(=O)COCCOCCNC(=O)CC[C@H](NC(=O)CCCCCCCCCCCCCCCCC(=O)O)C(=O)O)C(=O)O)C(=O)O)C(=O)N[C@@H](CCCNC(=N)N)C(=O)N[C@@H](CCCNC(=N)N)C(=O)N[C@@H](C)C(=O)N[C@@H](CCCNC(=N)N)C(=O)N[C@@H](CCC(=O)O)C(=O)N[C@@H](Cc1ccccc1)C(=O)N[C@H](C(=O)N[C@@H](CCC(N)=O)C(=O)N[C@@H](Cc1c[nH]c2ccccc12)C(=O)N[C@@H](CC(C)C)C(=O)N[C@@H](CC(C)C)C(=O)N[C@@H](CC(N)=O)C(=O)N[C@H](C(N)=O)[C@@H](C)O)C(C)C
B3: N^ε16-[(4S)-4-carboxy-4-[[2-[2-[2-[[2-[2-[2-[[(4S)-4-carboxy-4-[[(4S)-4-carboxy-4-(17-carboxyheptadecanoylamino)butanoyl]amino]butanoyl]amino]ethoxy]ethoxy]acet … (peptide)
peptide: H[Aib]HGTFTSDLSKYLEK([γGlu-AEEA-AEEA-γGlu-γGlu-C18 diacid])RRAREFVAWLLST-NH2
modifications: N-terminus assumed
SMILES: CC(C)C[C@H](NC(=O)[C@H](Cc1c[nH]c2ccccc12)NC(=O)[C@H](C)NC(=O)[C@@H](NC(=O)[C@H](Cc1ccccc1)NC(=O)[C@H](CCC(=O)O)NC(=O)[C@H](CCCNC(=N)N)NC(=O)[C@H](C)NC(=O)[C@H](CCCNC(=N)N)NC(=O)[C@H](CCCNC(=N)N)NC(=O)[C@H](CCCCNC(=O)CC[C@H](NC(=O)COCCOCCNC(=O)COCCOCCNC(=O)CC[C@H](NC(=O)CC[C@H](NC(=O)CCCCCCCCCCCCCCCCC(=O)O)C(=O)O)C(=O)O)C(=O)O)NC(=O)[C@H](CCC(=O)O)NC(=O)[C@H](CC(C)C)NC(=O)[C@H](Cc1ccc(O)cc1)NC(=O)[C@H](CCCCN)NC(=O)[C@H](CO)NC(=O)[C@H](CC(C)C)NC(=O)[C@H](CC(=O)O)NC(=O)[C@H](CO)NC(=O)[C@@H](NC(=O)[C@H](Cc1ccccc1)NC(=O)[C@@H](NC(=O)CNC(=O)[C@H](Cc1c[nH]cn1)NC(=O)C(C)(C)NC(=O)[C@@H](N)Cc1c[nH]cn1)[C@@H](C)O)[C@@H](C)O)C(C)C)C(=O)N[C@@H](CC(C)C)C(=O)N[C@@H](CO)C(=O)N[C@H](C(N)=O)[C@@H](C)O
B4: N^ε28-[(4S)-4-carboxy-4-[[(4S)-4-carboxy-4-[[(2S)-2-[[(2S)-4-carboxy-2-[[(2S)-2-[[(4S)-4-carboxy-4-[[(4S)-4-carboxy-4-(17-carboxyheptadecanoylamino)butanoyl]ami … (peptide)
peptide: H[Aib]QGTFTSDLSKYLESKRAREFVQWLLK([γGlu-γGlu-Ser-Glu-Ser-γGlu-γGlu-C18 diacid])T-NH2

Assays:
human GLP-1 receptor [1] = target: T1, human GLP-1 receptor (human, UniProt P43220 24-463); assay: displacement of 125I-GLP-1(7-36)NH2, membranes with human GLP-1R, SPA
T1 construct: whole, on cells; the potency assay used whole cells (clone FCW467-12A/KZ10-1)
Method: (§1) The receptor binding of each compound to the human GLP-1 receptor was measured in a displacement binding assay. […] Each derivative was added in a series of concentrations to isolated membranes containing the human GLP-1 receptor and displacement of the labelled ligand was monitored. The receptor binding was reported as the concentration at which half of the labelled ligand was displaced from the receptor, the IC₅₀ value.

human glucagon receptor [2] = target: T2, human glucagon receptor (human, UniProt P47871 26-477); assay: displacement of 125I-glucagon, membranes with human glucagon receptor, SPA
T2 construct: whole, on cells; the potency assay used whole cells (clone pLJ6'-4-25); also called GlucR; hGCGR
T2 sequence (P47871 26-477): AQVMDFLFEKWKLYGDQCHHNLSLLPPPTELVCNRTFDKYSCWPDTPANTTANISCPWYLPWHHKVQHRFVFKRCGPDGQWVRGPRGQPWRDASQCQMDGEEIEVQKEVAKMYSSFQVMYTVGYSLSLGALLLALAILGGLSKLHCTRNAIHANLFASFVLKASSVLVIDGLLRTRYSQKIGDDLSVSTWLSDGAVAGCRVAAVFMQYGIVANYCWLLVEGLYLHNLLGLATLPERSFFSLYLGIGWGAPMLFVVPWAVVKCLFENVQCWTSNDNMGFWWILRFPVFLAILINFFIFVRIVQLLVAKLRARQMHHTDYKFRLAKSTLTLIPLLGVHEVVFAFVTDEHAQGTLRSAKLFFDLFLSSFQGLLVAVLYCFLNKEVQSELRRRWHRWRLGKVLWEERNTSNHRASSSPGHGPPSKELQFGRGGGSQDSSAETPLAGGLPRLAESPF
Method: as §1, with “human glucagon” for “human GLP-1”, “ligand is” for “ligand was”

human glucagon receptor [3] = target: T2, human glucagon receptor; assay: cell-based or functional assay
human GLP-1 receptor [4] = target: T1, human GLP-1 receptor; assay: cell-based or functional assay

| Binder | IC50 (human GLP-1 receptor [1]) [nM] | IC50 (human glucagon receptor [2]) [nM] | EC50 GlucR, CRE luciferase reporter gene assay in BHK cells (human glucagon receptor [3]) [nM] | EC50 GLP-1R, CRE luciferase reporter gene assay in BHK cells (human GLP-1 receptor [4]) [nM] |
| --- | --- | --- | --- | --- |
| B1 | 0.4 | 6.7 | 0.0624 | 0.0044 |
| B2 | 0.5 | 1.2 | 0.0423 | 0.0092 |
| B3 | 3.9 | 1.9 | 0.0068 | 0.0327 |
| B4 | 0.2 | 1.7 |  | 0.0027 |
